Reference: IntAct's records for PubMed 19525971

B1: Charged multivesicular body protein 3 (Homo sapiens), Q9Y3E7-1 (parent)
chain: MGLFGKTQEKPPKELVNEWSLKIRKEMRVVDRQIRDIQREEEKVKRSVKDAAKKGQKDVCIVLAKEMIRSRKAVSKLYASKAHMNSVLMGMKNQLAVLRVAGSLQKSTEVMKAMQSLVKIPEIQATMRELSKEMMKAGIIEEMLEDTFESMDDQEEMEEEAEMEIDRILFEITAGALGKAPSKVTDALPEPEPPGAMAASEDEEEEEEALEAMQSRLATLRS
partner: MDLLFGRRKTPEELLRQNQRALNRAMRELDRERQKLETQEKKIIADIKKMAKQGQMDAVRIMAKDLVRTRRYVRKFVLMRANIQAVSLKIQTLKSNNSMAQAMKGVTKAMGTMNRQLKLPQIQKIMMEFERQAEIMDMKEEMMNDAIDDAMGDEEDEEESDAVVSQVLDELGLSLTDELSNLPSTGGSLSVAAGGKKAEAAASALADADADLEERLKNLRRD

Variants of: B1
Conditions: with chm2a_human CHMP2A

effect of a mutation on the interaction | Variant
disrupting interaction | MGLFGKTQEKPPKELVNEWSLKIRKEMRVVDRQIRDIQREEEKVKRSVKDAAKKGQKDDCIDLAKEMIRSRKAVSKLYASKAHMNSVLMGMKNQLAVLRVAGSLQKSTEVMKAMQSLVKIPEIQATMRELSKEMMKAGIIEEMLEDTFESMDDQEEMEEEAEMEIDRILFEITAGALGKAPSKVTDALPEPEPPGAMAASEDEEEEEEALEAMQSRLATLRS [V59D;V62D]
disrupting interaction | MGLFGKTQEKPPKELVNEWSLKIRKEMRVVDRQIRDIQREEEKVKRSVKDAAKKGQKDDCIDLAKEMIRSRKAVSKLYASKAHMNSVLMGMKNQLAVLRVAGSLQKSTEVMKAMQSLVKIPEIQATMRELSKEMMKAGIIEEMLEDTFESMDDQEEMEEEAEMEIDRDDFEITAGALGKAPSKVTDALPEPEPPGAMAASEDEEEEEEALEAMQSRLATLRS [V59D;V62D;I168D;L169D]
